Assay results published in patent US6824972 (BAYLOR COLLEGE OF MEDICINE, dated 2004).

Molecular target: T1, NF-κB relA subunit (human, UniProt Q04206 1-551)
T1 construct: also called re1A; p65
Test: EMSA with supershift (antisera to p50 and relA), nuclear extracts of TNF-stimulated normal and patient G embryonic fibroblasts, 32P-labelled MHC-1 probe

T1 sequence (Q04206 whole entry): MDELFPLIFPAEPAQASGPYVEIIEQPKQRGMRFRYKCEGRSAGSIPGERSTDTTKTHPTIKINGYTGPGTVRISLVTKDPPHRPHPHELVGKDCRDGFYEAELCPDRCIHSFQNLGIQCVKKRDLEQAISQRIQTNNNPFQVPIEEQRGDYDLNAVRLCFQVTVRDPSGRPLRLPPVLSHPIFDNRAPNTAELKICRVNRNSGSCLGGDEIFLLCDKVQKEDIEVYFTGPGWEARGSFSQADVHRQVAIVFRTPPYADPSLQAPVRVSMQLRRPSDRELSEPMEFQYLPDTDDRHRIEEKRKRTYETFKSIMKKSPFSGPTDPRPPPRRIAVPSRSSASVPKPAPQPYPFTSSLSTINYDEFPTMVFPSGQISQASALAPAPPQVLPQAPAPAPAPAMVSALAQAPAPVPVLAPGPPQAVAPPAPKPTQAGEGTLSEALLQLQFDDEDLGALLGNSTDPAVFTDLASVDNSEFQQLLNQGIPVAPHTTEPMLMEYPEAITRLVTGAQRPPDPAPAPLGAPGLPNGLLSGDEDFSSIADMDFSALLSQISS

binding result: binds
B1: NF-κB p50 subunit (other, human, UniProt P19838 1-433, looked up)
chain: MAEDDPYLGRPEQMFHLDPSLTHTIFNPEVFQPQMALPTDGPYLQILEQPKQRGFRFRYVCEGPSHGGLPGASSEKNKKSYPQVKICNYVGPAKVIVQLVTNGKNIHLHAHSLVGKHCEDGICTVTAGPKDMVVGFANLGILHVTKKKVFETLEARMTEACIRGYNPGLLVHPDLAYLQAEGGGDRQLGDREKELIRQAALQQTKEMDLSVVRLMFTAFLPDSTGSFTRRLEPVVSDAIYDSKAPNASNLKIVRMDRTAGCVTGGEEIYLLCDKVQKDDIQIRFYEEEENGGVWEGFGDFSPTDVHRQFAIVFKTPKYKDINITKPASVFVQLRRKSDLETSEPKPFLYYPEIKDKEEVQRKRQKLMPNFSDSFGGGSGAGAGGGGMFGSGGGGGGTGSTGPGYSFPHYGFPTYGGITFHPGTTKSNAGMKHG
